± gives the uncertainty stated by the source.
Experiment: self-splicing fitness, log relative to wild type (ln ratio); higher = more splicing; Tetrahymena group I intron in knt gene, E. coli kanamycin selection, DiMSum; sequences stand for … in CUCUCU…GGAGGGAAAAGUUAUCAGGCAUGCACCUGGUAGCUAGUCUUUAAACCAAUAGAUUGCAUCGGUUUAAAAGGCAAGACCGUCAAAUUGCGGGAAAGGGGUCAACAGCCGUUCAGUACCAAGUCUCAGGGGAAACUUUGAGAUGGCCUUGCAAAGGGUAUGGUAAUAAGCUGACGGACAUGGUCCUAACCACGCAGCCAAGUCCUAAGUCAACAGAUCUUCUGUUGAUAUGGAUGCAGUUCACAGACUAAAUGUCGGUCGGGGAAGAUGUAUUCUUCUCAUAAGAUAUAGUCGGACCUCUCCUUAAUGGGAGCUAGCGGAUGAAGUGAUGCAACACUGGAGCCGCUGGGAACUAAUUUGUAUGCGAAAGUAUAUUGAUUAGUUUUGGAGUACUCGUGGUCG
In short: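 Fitness was computed with DiMSum as the error-weighted combination of replicate fold changes, kanamycin versus none, each normalised to wild type. The library randomised all eight intron nucleotides of the P1ex region, with the intron placed in the knt kanamycin-resistance gene on pET-22b(+) in E. coli BL21(DE3). Six replicate transformations were grown overnight at 37°C or 30°C on LB agar with or without 25 μg/mL kanamycin, plus 100 μg/mL carbenicillin, 50 μM IPTG and 0.2% rhamnose. Pooled colonies were amplicon-sequenced on an Illumina HiSeq 2500.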

Row | Sequence | self-splicing fitness (ln) (30 °C) | self-splicing fitness (ln) (37 °C)
1 | AGUAAGCAAUAUUACGGAUC | -1.39 ± 0.12 | -1.31 ± 0.1
2 | GGUGAGCAAUAUUACGCUAG |  | -1.65 ± 0.45
3 | UCAUAGCAAUAUUACGGCGG | -0.555 ± 0.059 | 0.417 ± 0.074
4 | CGGAAGCAAUAUUACGGGUA | -3.4 ± 0.23 | -2.07 ± 0.14
5 | GGUCAGCAAUAUUACGUUUC | 0.000828 ± 0.13 | -0.437 ± 0.14
6 | UUUCAGCAAUAUUACGUAGU | -3.95 ± 0.24 | -2.63 ± 0.18
7 | UAACAGCAAUAUUACGGAAU | -3.31 ± 0.14 | -2.24 ± 0.15
8 | UCGCAGCAAUAUUACGUAGA | -0.804 ± 0.065 | -0.0374 ± 0.079
9 | CGUAAGCAAUAUUACGACGU | -2.15 ± 0.15 | -0.981 ± 0.15
10 | UCCCAGCAAUAUUACGCAUG | -4.28 ± 0.22 | -2.41 ± 0.19
11 | UGACAGCAAUAUUACGCGGU | -3.56 ± 0.19 | -2.68 ± 0.19
12 | AUACAGCAAUAUUACGGACG | -1.61 ± 0.091 | -1.04 ± 0.098
13 | GCACAGCAAUAUUACGUGCA | -3.1 ± 0.12 | -2.04 ± 0.093
14 | CGACAGCAAUAUUACGUGAU | -3.44 ± 0.21 | -1.92 ± 0.17
15 | GGCGAGCAAUAUUACGCUCA | -1.02 ± 0.11 | 0.00865 ± 0.12
16 | UGGUAGCAAUAUUACGGUGU | -4.11 ± 0.31 | -0.563 ± 0.13
17 | CUUCAGCAAUAUUACGGAGA | -3.47 ± 0.21 | -3.04 ± 0.19
18 | UCUGAGCAAUAUUACGACGA | -0.584 ± 0.11 | 0.197 ± 0.13
19 | AAUCAGCAAUAUUACGAUCA | 0.364 ± 0.09 | 0.109 ± 0.11
20 | GGCGAGCAAUAUUACGAGAC | -1.31 ± 0.49 | 
21 | ACGAAGCAAUAUUACGCGAG | -1.48 ± 0.12 | -0.723 ± 0.11
22 | UUUGAGCAAUAUUACGCGGG | -2.66 ± 0.24 | -1.45 ± 0.21
23 | CCUAAGCAAUAUUACGCGUG | -3.34 ± 0.13 | -2.48 ± 0.13
24 | UCGGAGCAAUAUUACGCUAU | -3.09 ± 0.34 | -2.48 ± 0.36
25 | AACGAGCAAUAUUACGGCGA | -1.95 ± 0.23 | -0.978 ± 0.2

Row | Sequence | self-splicing fitness (ln) (30 °C) | self-splicing fitness (ln) (37 °C)
26 | GAGGAGCAAUAUUACGAUCU | -0.772 ± 0.12 | -0.217 ± 0.12
27 | UGGAAGCAAUAUUACGUUCG | 0.201 ± 0.087 | -0.347 ± 0.096
28 | CUUGAGCAAUAUUACGUGAC | -2.55 ± 0.24 | -1.08 ± 0.19
29 | UUAAAGCAAUAUUACGUUCG | 0.19 ± 0.084 | -0.157 ± 0.096
30 | GUUCAGCAAUAUUACGAACU | -3.89 ± 0.14 | -2.56 ± 0.16
31 | ACAGAGCAAUAUUACGAACA | -2.01 ± 0.26 | -2.67 ± 0.41
32 | AGUCAGCAAUAUUACGAUCA | 0.171 ± 0.099 | 0.226 ± 0.11
33 | CCGUAGCAAUAUUACGAGUC | -2.86 ± 0.23 | 
34 | CUCUAGCAAUAUUACGAGAA | -3.05 ± 0.41 | -2.02 ± 0.21
35 | GCAUAGCAAUAUUACGUCCA | -1.49 ± 0.21 | -0.447 ± 0.18
36 | AGUAAGCAAUAUUACGUGGA | -3.8 ± 0.4 | -3.85 ± 0.39
37 | GGUAAGCAAUAUUACGAUAC | -0.265 ± 0.12 | -0.608 ± 0.16
38 | GUGGAGCAAUAUUACGAAUU |  | -3.14 ± 0.47
39 | UCGUAGCAAUAUUACGUCCU | -2.04 ± 0.21 | -1.63 ± 0.31
40 | GCAUAGCAAUAUUACGAGCU | -3.2 ± 0.19 | -1.31 ± 0.15
41 | GGACAGCAAUAUUACGCCCC | -0.414 ± 0.41 | 
42 | UUCCAGCAAUAUUACGGGAC |  | -1.29 ± 0.39
43 | UUUCAGCAAUAUUACGGUUA | 0.116 ± 0.071 | 0.454 ± 0.077
44 | CAUUAGCAAUAUUACGGUAU |  | -0.876 ± 0.12
45 | AACGAGCAAUAUUACGGAAU | -2.84 ± 0.24 | -1.81 ± 0.22
46 | GCCUAGCAAUAUUACGGAAA | -0.507 ± 0.27 | -0.985 ± 0.26
47 | GAUUAGCAAUAUUACGGCUG | -0.996 ± 0.067 | -0.513 ± 0.093
48 | UACGAGCAAUAUUACGCAUU | -3.48 ± 0.43 | -2.09 ± 0.46
49 | AUUUAGCAAUAUUACGUAUG | -2.35 ± 0.34 | -0.838 ± 0.41
50 | UACGAGCAAUAUUACGGUGU |  | -3.09 ± 0.29

Row | Sequence | self-splicing fitness (ln) (30 °C) | self-splicing fitness (ln) (37 °C)
51 | AUGCAGCAAUAUUACGUCAG | -2.17 ± 0.092 | -1.12 ± 0.11
52 | GCUAAGCAAUAUUACGAGGC | -1.85 ± 0.21 | -1.6 ± 0.33
53 | UUAUAGCAAUAUUACGUAAU | -3.23 ± 0.31 | -2.11 ± 0.36
54 | CCUGAGCAAUAUUACGCUCG | -2.14 ± 0.43 | -1.7 ± 0.41
55 | UGGCAGCAAUAUUACGUACA | 0.117 ± 0.071 | 0.116 ± 0.1
56 | UCUGAGCAAUAUUACGCUGC | -2.24 ± 0.37 | -1.46 ± 0.34
57 | AUACAGCAAUAUUACGAAGG | -3.3 ± 0.24 | -2.87 ± 0.28
58 | AAAAAGCAAUAUUACGCGCG | -0.0286 ± 0.091 | -0.207 ± 0.11
59 | ACCGAGCAAUAUUACGGGCU | -3.3 ± 0.16 | -2.59 ± 0.19
60 | CAAUAGCAAUAUUACGAUCA | -2.41 ± 0.17 | -2.17 ± 0.16
61 | UAUGAGCAAUAUUACGGCGG | -3.22 ± 0.23 | -1.72 ± 0.26
62 | UAACAGCAAUAUUACGUAGG | -2.08 ± 0.065 | -1.65 ± 0.079
63 | CGAAAGCAAUAUUACGGCGG | -0.187 ± 0.067 | 0.456 ± 0.093
64 | AAACAGCAAUAUUACGGGUU | -2.28 ± 0.09 | -1.8 ± 0.11
65 | AGCGAGCAAUAUUACGCACC | -0.941 ± 0.45 | -0.411 ± 0.37
66 | CGGGAGCAAUAUUACGCACG | -1.33 ± 0.31 | 
67 | AACGAGCAAUAUUACGUUAU | -3.69 ± 0.16 | -1.52 ± 0.11
68 | GAAUAGCAAUAUUACGUCGU | -2 ± 0.12 | -1.35 ± 0.14
69 | CUGGAGCAAUAUUACGGAUU | -3.29 ± 0.43 | -2.83 ± 0.34
70 | AGCCAGCAAUAUUACGACUC | -4.9 ± 0.46 | -2.49 ± 0.27
71 | GGCGAGCAAUAUUACGGGGG | -3.33 ± 0.2 | -2.64 ± 0.28
72 | UCUAAGCAAUAUUACGGCUG | -0.983 ± 0.21 | -1.68 ± 0.24
73 | UUGGAGCAAUAUUACGGUUG | -3.97 ± 0.28 | -3.38 ± 0.31
74 | CGCAAGCAAUAUUACGACUG | -0.662 ± 0.097 | -0.47 ± 0.12
75 | AAGAAGCAAUAUUACGUGGU | -3.58 ± 0.14 | -2.23 ± 0.14

Row | Sequence | self-splicing fitness (ln) (30 °C) | self-splicing fitness (ln) (37 °C)
76 | UCUAAGCAAUAUUACGCCAU | -3.76 ± 0.46 | -2.37 ± 0.42
77 | UCUCAGCAAUAUUACGACCC |  | -1.98 ± 0.23
78 | GUUUAGCAAUAUUACGCUCA | 0.0718 ± 0.14 | 0.432 ± 0.2
79 | UUCAAGCAAUAUUACGUUUG | -3.95 ± 0.34 | -2.31 ± 0.28
80 | AAGGAGCAAUAUUACGCUAG | -2.17 ± 0.2 | 
81 | CGGCAGCAAUAUUACGCAGG | -2.02 ± 0.093 | -1.33 ± 0.12
82 | AAGGAGCAAUAUUACGCCGA | -2.33 ± 0.18 | -0.979 ± 0.26
83 | AACCAGCAAUAUUACGAAAU | -1.08 ± 0.058 | -0.397 ± 0.074
84 | GUUAAGCAAUAUUACGUGGA | -2.84 ± 0.15 | -2.31 ± 0.15
85 | GGGGAGCAAUAUUACGGAGC | -2.66 ± 0.33 | -1.79 ± 0.2
86 | GAGAAGCAAUAUUACGCAGU | -3.98 ± 0.23 | -2.06 ± 0.17
87 | AUAUAGCAAUAUUACGGAAA |  | -0.209 ± 0.33
88 | AAGAAGCAAUAUUACGCCUG | -0.11 ± 0.11 | -0.509 ± 0.14
89 | AGGGAGCAAUAUUACGAUUU | -2.26 ± 0.18 | -1.92 ± 0.29
90 | UUCUAGCAAUAUUACGCUUC | -2.8 ± 0.32 | -1.96 ± 0.22
91 | AUGAAGCAAUAUUACGACUG | -0.375 ± 0.097 | -0.617 ± 0.11
92 | CUAGAGCAAUAUUACGGUUA | -3.66 ± 0.24 | -3.14 ± 0.4
93 | GACCAGCAAUAUUACGAGUG | -0.669 ± 0.055 | -0.33 ± 0.084
94 | CUCCAGCAAUAUUACGAUGA | -2.36 ± 0.25 | -2.7 ± 0.27
95 | AAUCAGCAAUAUUACGAUAC | -0.844 ± 0.081 | -0.307 ± 0.11
96 | UGCCAGCAAUAUUACGCAGU | -4.11 ± 0.24 | -2.41 ± 0.2
97 | UAGAAGCAAUAUUACGUCCA | -0.0908 ± 0.069 | 0.309 ± 0.1
98 | CUCCAGCAAUAUUACGAACC | -3.49 ± 0.26 | -1.91 ± 0.32
99 | AGCCAGCAAUAUUACGGGUG | -2.15 ± 0.075 | -0.713 ± 0.085
